Source: the supplement of paper PMC10201428
± gives the standard deviation of the averaged measurements.

B1: library; a variant is named by its letters at N, in order (parent)
chain: AATGTTGTTGATGCAACCATAAAGTGATATTTAATAATTATTTATAATCAGCAACTTAACCACAAAACAACCATATATTGATATNTCACAAAACAACCATAANTTGATATTTTTGTGAATCGAGTATTTCAGCAAAACTACTGCAGTAAGAA

Legend:
[1] = variants of: B1; assay: relative integration efficiency (T-LR orientation) vs wild-type transposon end (log2 (normalized fold change)); transposon end mutated: left end; higher = more efficient transposition; conditions: with VchCAST RNA-guided transposition machinery (E. coli BL21(DE3) host, lacZ target)
Protocol: (§1)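 Pooled, barcoded VchCAST (Tn6677) mini-transposon donor libraries; each variable transposon-end sequence sits in a fixed pDonor mini-transposon context (10-bp barcode and cargo not included). Left- or right-end libraries were co-transformed with pEffector (TniQ-Cascade, TnsABC, lacZ crRNA, T7, 0.1 mM IPTG) into E. coli BL21(DE3) and grown 18 h at 37 C. T-LR and T-RL junction amplicons were sequenced; output/input barcode fold change was normalised to the mean of four wild-type barcodes and log2-transformed. Two biological replicates; zero-count/undetected variants carry floor values (-10 / -15), censored here. Barcode uncoupling by PCR recombination adds noise.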

[2] = variants of: B1; assay: relative integration efficiency (T-RL orientation) vs wild-type transposon end (log2 (normalized fold change)); transposon end mutated: left end; higher = more efficient transposition; conditions: with VchCAST RNA-guided transposition machinery (E. coli BL21(DE3) host, lacZ target)
Protocol: as §1

Variant | relative integration efficiency (log2) [1] | relative integration efficiency (log2) [2]
AATGTTGTTGATGCAACCATAAAGTGATATTTAATAATTATTTATAATCAGCAACTTAACCACAAAACAACCATATATTGATATCTCACAAAACAACCATAAGTTTATATTTTTGTGAATCGAGTATTTCAGCAAAACTACTGCAGTAAGAA [CG G106T] | -1.19 ± 0.64 | -0.797 ± 0.42
AATGTTGTTGATGCAACCATAAAGTGATATTTAATAATTATTTATAATCAGCAACTTAACCACAAAACAACCCGCGATTGATATCTCACAAAACAACCATAAGTTGATATTTTTGTGAATCGAGTATTTCAGCAAAACTACTGCAGTAAGAA [CG A73C T74G A75C T76G] | -1.86 ± 0.67 | -2.23 ± 0.73
AATGTTGTTGATGCAACCATAAAGTGATATTTAATAATTATTTATAATCAGCAACTTAACCACAAAACAACCATATAGGGATATCTCACAAAACAACCATAAGTTGATATTTTTGTGAATCGAGTATTTCAGCAAAACTACTGCAGTAAGAA [CG T78G T79G] | 0.377 ± 0.26 | 0.387 ± 0.84
AATGTTGTTGATGCAACCATAAAGTGATATTTAATAATTATTTATAATCAGCAACTTAACCACAAAACACCCATAAATTGATATTGCACAAAACAACCATATATTGATATCTCTGTGAATCGAGTATTTCAGCAAAACTACTGCAGTAAGAA [TA A70C T76A T86G A102T T111C T113C] | -0.561 ± 0.29 | -0.418 ± 0.19
AATGTTGTTGATGCAACCATAAAGTGATATTTAATAATTATTTATAATCAGCAACTTAACCCACCAACAACCATATATTGATATCTCACAAAACAACCATAAGTTGATATTTTTGTGAATCGAGTATTTCAGCAAAACTACTGCAGTAAGAA [CG A62C C63A A64C A65C] | -0.604 ± 0.18 | -0.324 ± 0.044
AATGTTGTTGATGCACCCATAAATTGATATTGCATAATTATTTATAATCAGCAACTTAACCACAAAACAACCATATATTGATATCTCACAAAACAACCATAAAGTGATATTTATGTGAATCGAGTATTTCAGCAAAACTACTGCAGTAAGAA [CA A16C G24T T32G A33C T104G T113A] | -0.783 ± 0.61 | -0.765 ± 0.33
AATGTTGTTGATGCAACCATAAAGTGATATTTAATAATTATTTATAATCAGCAACTTAACCACAAAACAACCATATATTGATATCTCACAAAACAACCATAAGAACTTATTTTTGTGAATCGAGTATTTCAGCAAAACTACTGCAGTAAGAA [CG T104A T105A G106C A107T] | -1.39 ± 0.94 | -2.04 ± 0.73
AATGTTGTTGATGCAACCATAAAGTGATATTTAATAATTATTTATAATCAGCAACTTAACCACAAAAACACCATATATTGATATCTCACAAAACAACCATAAGTTGATATTTTTGTGAATCGAGTATTTCAGCAAAACTACTGCAGTAAGAA [CG C68A A69C] | -0.147 ± 0.86 | -0.266 ± 0.23
AATGTTGTTGATGCAACCATAAAGTGATATTTAATAATTATTTATAATCAGCAACTTAACCACTTAACAACCATATATTGATATCTCACAAAACAACCATAAGTTGATATTTTTGTGAATCGAGTATTTCAGCAAAACTACTGCAGTAAGAA [CG A64T A65T] | 0.0165 ± 0.48 | 0.469 ± 0.084
AATGTTGTTGATGCAACCATAAAGTGATATAAAATAATTATTTATAATCAGCAACTTAACCACAAAACAACCATATATTGATATCTCACAAAACAACCATAAGTTGATATTTTTGTGAATCGAGTATTTCAGCAAAACTACTGCAGTAAGAA [CG T31A T32A] | -0.442 ± 0.33 | -0.131 ± 0.028
AATTGGTTTGATGCAACCATAAAGTGATATTTAATAATTATTTATAATCAGCAACTTAACCACAAAACAACCATATATTGATATCTCACAAAACAACCATAAGTTGATATTTTTGTGAATCGAGTATTTCAGCAAAACTACTGCAGTAAGAA [CG G4T T5G T6G G7T] | < -10 | -6.583 ± 0.046
AATGTTGTTGATGCAACCATAAAATGATAATTAATAATTATTTATAATCAGCAACTTAACCACAAAACAACCATATATTGATATCTCACAAAACAACCATAAAGTGATATTTATGTGAATCGAGTATTTCAGCAAAACTACTGCAGTAAGAA [CA G24A T30A T104G T113A] | -0.317 ± 0.27 | -0.387 ± 0.13
AATGGTGTTGATGCAACCATAAAGTGATATTTAATAATTATTTATAATCAGCAACTTAACCACAAAACAACCATATATTGATATCTCACAAAACAACCATAAGTTGATATTTTTGTGAATCGAGTATTTCAGCAAAACTACTGCAGTAAGAA [CG T5G] | 0.0272 ± 0.098 | 0.0254 ± 0.14
AATGTTGTTGATGCAACCATAAGTTGATATTTTATAATTATTTATAATCAGCAACTTAACCACAAAACACCCATAAATTGATAATTAACAAAACACCCATAAATTGATAATTATGTGAATCGAGTATTTCAGCAAAACTACTGCAGTAAGAA [TA A23G G24T A33T A70C T76A T84A C87A A96C T110A T113A] | 0.218 ± 0.46 | 0.00966 ± 0.38
AATGTTGTTGATGCAACCATAAAGTGATATTTAATAATTATTTATAATCAGCAACTTAACCACAAAACAACCATATCGGTATATCTCACAAAACAACCATAAGTTGATATTTTTGTGAATCGAGTATTTCAGCAAAACTACTGCAGTAAGAA [CG A77C T78G T79G G80T] | -2.28 ± 1.1 | -1.57 ± 0.49
AATGTTGTTGATGCAACCATAAAGTGATATTTAATAATTATTTATAGTCAGCAACTTAACCACAAAACAACCATATATTGATATCTCACAAAACAACCATAAGTTGATATTTTTGTGAATCGAGTATTTCAGCAAAACTACTGCAGTAAGAA [CG A47G] | -0.05 ± 0.31 | -0.131 ± 0.15
AATGTTGTTGAAACAACCATAAAGTGATATCAAATAATTATTTATAATCAGCAACTTAACCACAAAACAACCATATCTTGATATCGCACAAAACAACCATAAGTTGATATTTTTGTGAATCGAGTATTTCAGCAAAACTACTGCAGTAAGAA [CG T12A G13A T31C T32A A77C T86G] | -0.861 ± 0.36 | -0.573 ± 0.15
AATGTTGTTGATGCAACCATAAAGTGATATTTAATAATTATTTATAATCAGCAACTTAACCACAAAACAACCATATATTGATATCTCACAAAACAACCATAAGTTTCGCTTTTTGTGAATCGAGTATTTCAGCAAAACTACTGCAGTAAGAA [CG G106T A107C T108G A109C] | -2.4 ± 0.46 | -2.01 ± 0.81
AATGTTGTTGATGCAACCATAAAGTGATATTTAATAATTATTTATAATCAGCAACTTAACCACAAAACAACCATATATTGATATCTCACAAAACAACCATAAGTTGATATTTTGGTGAAACGAGTATTTCAGCAAAACTACTGCAGTAAGAA [CG T114G T120A] | 0.16 ± 0.11 | -0.2 ± 0.041
